{
  "source": "the nanobody polyreactivity screen of Harvey et al. (2022)",
  "data": [
    {"experiment": "yeast display, Sf9 membrane polyspecificity reagent, FACS + sequencing; frameworks hold sequencing errors", "method_in_brief": "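Genes from sorted yeast were amplified by colony PCR, read by MiSeq 2 × 250 sequencing and filtered on CDR length. These cells carried a synthetic nanobody library in Saccharomyces cerevisiae BJ5465 and were sorted by FACS into low and high (top ~1%) gates on anti-HA and streptavidin fluorescence. Polyreactivity is labelled according to the gate of origin.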", "values": [
      {"sequence": "QVQLVESGGGLVQAGGSLRLSCAASGSIFQYYVMGWYRQAQGKERELVAAISRGGGSTYYADSLKGRFTISRDNAKNTVYLQMNSMKPEDTAVYYCAKRTTRLAPYDYWGQGTQVTVSS", "polyreactivity (PSR sort gate)": "high polyreactivity"},
      {"sequence": "QVQLVESGGGLVQAGGSLRLSCAASGSIFRENAMGWYRQAPGKERELVAAITDGGDRTYYADSVKGRFTISRDNAKNTVYLQMNSLKPEDTAVYYCAARWLYWPRYNSLVYTHRDSWGQGTQVTVSS", "polyreactivity (PSR sort gate)": "low polyreactivity"},
      {"sequence": "QVQLVESGGGLVQAGGSLRLSCAASGSIFRFNAMGWYRQAPGKERELVAAITSRTYYADSVKGRFTISRDNAKNTVYLQMNSLKPEDTAVYYCAARVQSKYGYWGQGTQVTVSS", "polyreactivity (PSR sort gate)": "high polyreactivity"},
      {"sequence": "QVQLVESGGGLVQAGGSLRLSCAASGSIFRFYPLGWYRQSPGKERELVAGITWSGASTYYADSVKGRFTISRDNAKNTVYLQMNSLKPEDTAVYYCAKLYRLDGFYYWGQGTQVTVSS", "polyreactivity (PSR sort gate)": "high polyreactivity"},
      {"sequence": "QVQLVESGGGLVQAGGSLRLSCAASGSIFRGNAMGWYRQAPGKERELVAAISWSGASTYYADSVKGRFTISRDNAKNTVYLQMNSLKPEDTAVYYCAAVQWTGYPFDYWGQGTQVTVSS", "polyreactivity (PSR sort gate)": "high polyreactivity"},
      {"sequence": "QVQLVESGGGLVQAGGSLRLSCAASGSIFRGNAMGWYRQAPGKERELVAAITSRGTSTYYADSVKGRFTISRDNAKNTVYLQMNSLKREDTAVYYCAARGYYLYWGQGTQVTVSS", "polyreactivity (PSR sort gate)": "high polyreactivity"},
      {"sequence": "QVQLVESGGGLVQAGGSLRLSCAASGSIFRGNAMGWYRQAPGKERELVAGINRAGSTKYADSVKGRFTISRDNAKNTVYLQMNSLKPEDTAVYYCAAVRYERGLWSDYWGQGTQVSVSS", "polyreactivity (PSR sort gate)": "high polyreactivity"},
      {"sequence": "QVQLVESGGGLVQAGGSLRLSCAASGSIFRGNAMGWYRQAPGKERELVATITNGGSTNYADSVKGRFTISRDNAKNTVYLQMNSLKPEDTAVYYCNADHSYHIASTRHVDYWGQGTQVTVSS", "polyreactivity (PSR sort gate)": "low polyreactivity"},
      {"sequence": "QVQLVESGGGLVQAGGSLRLSCAASGSIFRGYAMGWYRQAPGKERELVAAITSRGGSTYYADSVKGRFTISRDNAKNTVYLQMNSLKPEDTAVYYCNKRVYYPWGQGTQVTVSS", "polyreactivity (PSR sort gate)": "high polyreactivity"},
      {"sequence": "QVQLVESGGGLVQAGGSLRLSCAASGSIFRGYAMGWYRQAPGKERELVAAITSSAGSTYYADSVKGRFTISRDNAKNTVYLQMNSLKPEDTAVYYCNKYPRASRRGFDYWGQGTQVTVSS", "polyreactivity (PSR sort gate)": "high polyreactivity"},
      {"sequence": "QVQLVESGGGLVQAGGSLRLSCAASGSIFRINAMGWYRPARGKERELVAATTKYADSVKGRFTISRDNAKNTVYLQMHSLKPEDTAVYYCAAAPIGGSSHPYDYWGQGTQVTVTS", "polyreactivity (PSR sort gate)": "low polyreactivity"},
      {"sequence": "QVQLVESGGGLVQAGGSLRLSCAASGSIFRIYAMGWYRHAPGKERELVAAITGRGGSTYYADSVKGRFTISRDNEKNTVYLQMNSLKPEDTAVYYCAAEERYAYRYDYWGQGTQVTVSS", "polyreactivity (PSR sort gate)": "high polyreactivity"},
      {"sequence": "QVQLVESGGGLVQAGGSLRLSCAASGSIFRIYAMGWYRQAPGKERELVAAISWTGGSTYYADSVKGRFTISRDNAKNTFFLQMNSLKPEDTAVYYCAARPRYKFSAYEYWGQGTQVTVSS", "polyreactivity (PSR sort gate)": "high polyreactivity"},
      {"sequence": "QVQLVESGGGLVQAGGSLRLSCAASGSIFRIYAMGWYRQSPGKERELVAAISFSTGSRTYYADSVKGRFTISRDNAKNTVYLQMNSLKPEDTAVYYCNAESYYDYNYWGQGTQVTVSS", "polyreactivity (PSR sort gate)": "low polyreactivity"},
      {"sequence": "QVQLVESGGGLVQAGGSLRLSCAASGSIFRKNAMGWYRQAPGKERELVAAISSSGGRTYYADSVKGRFTISRDNAKNTVYLQMNSLKPEDTAVYYCAAVYSKGGSSRISPGDDYWGQGTQVTVSS", "polyreactivity (PSR sort gate)": "high polyreactivity"},
      {"sequence": "QVQLVESGGGLVQAGGSLRLSCAASGSIFRKNVMGWSRPAPGKERELVAAITASGGRTYYADSVKGRFTISRDNAKNTVYLQMNSLKPEDTAVYYCAARRYYPYISSGPYYYWGQGTQVTVSS", "polyreactivity (PSR sort gate)": "high polyreactivity"},
      {"sequence": "QVQLVESGGGLVQAGGSLRLSCAASGSIFRKYAMGWYRQAPGKDRELVAAISKRGGSTYYADSVKGRFTISRDNAKNTVYLQMNSLKPEDTAVYYSNALRRYVSVRPTKSDYWGQGTQVTVSS", "polyreactivity (PSR sort gate)": "high polyreactivity"},
      {"sequence": "QVQLVESGGGLVQAGGSLRLSCAASGSIFRKYAMGWYRQAPGKERELVAVITTDGSTNYADSVKGLFTISRDNAKNTVYLQMNSLKPEDTAVYYCNAVRSSIGTDNDYWGQGTQVTVSS", "polyreactivity (PSR sort gate)": "low polyreactivity"},
      {"sequence": "QVQLVESGGGLVQAGGSLRLSCAASGSIFRKYTMGWYRQAPGKERELVAAISRIGGSTYYADSVKGRFTISRDNAKNTVYLQMNSLKPEDTAVYYCAKRGPRSYFQPWYDYWGQGTQVTVSS", "polyreactivity (PSR sort gate)": "high polyreactivity"},
      {"sequence": "QVQLVESGGGLVQAGGSLRLSCAASGSIFRLNVMGWYRQAPGKERELVAVITGSGTRTNYADSVKGRFTISRDNAKNTVYLQMNSLKPEDTAVYYCNRVTTPTVTYGYGKMDYWGHGTQVTVSS", "polyreactivity (PSR sort gate)": "high polyreactivity"},
      {"sequence": "QVQLVESGGGLVQAGGSLRLSCAASGSIFRLYAMGWYRQAPGKERELVAAITRGDSTNYADSVKGRFTISRDNAKNTVYLQMNSLKPEDTAVYYCAVTGRLYAHPQGYDYWGQGTQVTVSS", "polyreactivity (PSR sort gate)": "low polyreactivity"},
      {"sequence": "QVQLVESGGGLVQAGGSLRLSCAASGSIFRNNAMGWYRQAPGKERELVASISSSGDSTYADSVKGRFTISRDNAKNTVYLQMNSLKPEDTAVYYCARDYLSPYAVDYWGQGTQVTVSS", "polyreactivity (PSR sort gate)": "low polyreactivity"},
      {"sequence": "QVQLVESGGGLVQAGGSLRLSCAASGSIFRNNAMGWYRQAPGKERELVAVISRRSGNTYYADSVKGRFTISRDNAKNTVYLQMNSLKPEDTAVYYCAADYSKSSIRGDYWGQGTQVTVSS", "polyreactivity (PSR sort gate)": "low polyreactivity"},
      {"sequence": "QVQLVESGGGLVQAGGSLRLSCAASGSIFRNYAMGWYRQAPGKERELVAAISYRGGSTYYADSVKGRFTISRDNAKNTVYLQMNSLKPEDTAVYYCAARTRKAYYYWGQGTQVTVSS", "polyreactivity (PSR sort gate)": "high polyreactivity"},
      {"sequence": "QVQLVESGGGLVQAGGSLRLSCAASGSIFRNYAMGWYRQAPGKERELVATIRYRGGRTYADSVKGRFTISRDNAKNTVYLQMNRLKPEDTAFYYCNTYARYAYLTGRMDYWGQGTQVTVSS", "polyreactivity (PSR sort gate)": "high polyreactivity"},
      {"sequence": "QVQLVESGGGLVQAGGSLRLSCAASGSIFRPNAMGWYRQAPGKERELVAAITWSGDSTYYADSVKGRFTISRDNAKNTVYLQMNSLKPEDTAVYYCAKYSLVFYISLYGYWGQGTQVTVSS", "polyreactivity (PSR sort gate)": "low polyreactivity"},
      {"sequence": "QVQLVESGGGLVQAGGSLRLSCAASGSIFRPYAMGWYRQAPGKEMELVAAISSSGGSTYYADSVKGRFTISRDNAKNTVYLQMNSLKPEDTAVYYCAAESRSTWIHSRDYWGQGTQVTVSS", "polyreactivity (PSR sort gate)": "low polyreactivity"},
      {"sequence": "QVQLVESGGGLVQAGGSLRLSCAASGSIFRPYAMGWYRQAPGKERELVAAISSSSGRTYYADSVKGRFTISRDNAKNTVYLQMNSLKPEDTAVYYCAADRYSFRGDYYWGQGTQVTVSS", "polyreactivity (PSR sort gate)": "low polyreactivity"},
      {"sequence": "QVQLVESGGGLVQAGGSLRLSCAASGSIFRPYAMGWYRQAPGKERELVAAISYRGGSTYYADSVKGRFTISRDNAKNTVYLQMNSLKPEDTAVYYCAADSREEGDYWGQGTQVTVSS", "polyreactivity (PSR sort gate)": "low polyreactivity"},
      {"sequence": "QVQLVESGGGLVQAGGSLRLSCAASGSIFRPYTMGWYRQAPGKERELVATISSTGITNYADSVKGRFTISRDNAKNTVYLQMNSLKPEDTAVYYCAARGRYVTPQPSYDYWGQGTQVTVSS", "polyreactivity (PSR sort gate)": "high polyreactivity"},
      {"sequence": "QVQLVESGGGLVQAGGSLRLSCAASGSIFRQNAMGWYRQAPGKERELVAAISWSGVRTYYADSVKGRFTISRDNAKNTVYLQMNSLKPEDTAVYYCATRYTHVYYGRISSSPKFDSWGQGTQVTVSS", "polyreactivity (PSR sort gate)": "low polyreactivity"},
      {"sequence": "QVQLVESGGGLVQAGGSLRLSCAASGSIFRRNAMGWYRQAPGKEREFVAAITWNGGSTYYADSEKGRFTNSRDNAKNPVYLQRNSLKPEDTAVYYCAARAFYYAGDWYGYWGQGTQVTVSS", "polyreactivity (PSR sort gate)": "high polyreactivity"},
      {"sequence": "QVQLVESGGGLVQAGGSLRLSCAASGSIFRRNAMGWYRQAPGKERELVAAIRSGGGTNYADSVKGRFTISRDNAKNTVYLQMNSLKPEDTAVYYCAAVYERYYLFEYDYWGQGTQVTVSS", "polyreactivity (PSR sort gate)": "low polyreactivity"},
      {"sequence": "QVQLVESGGGLVQAGGSLRLSCAASGSIFRRNPMGWYRQAPGKESELVAAISSSGGSTYYADSVKGGFTISRDIAKNTFYLQMNSVKPEDTAVYYCAARFGPQYRFDYWGQGTQVTVSS", "polyreactivity (PSR sort gate)": "high polyreactivity"},
      {"sequence": "QVQLVESGGGLVQAGGSLRLSCAASGSIFRRNTMGWYRQAPGKERELVAAISTRGGSTYYADSVKGRFTISRDNAKNTVYLQMNSLKPEDTAVYYCNTRGYYIVHRGYDYWGQGTQVTVSS", "polyreactivity (PSR sort gate)": "high polyreactivity"},
      {"sequence": "QVQLVESGGGLVQAGGSLRLSCAASGSIFRRYAMGWYRQAPGKEREFVAAITRSGGGTYYADSVKGRFTISRDNAKNTVYLQMNSLKPEDSAVYYCAKDVFVQRSRYPEGDYWGQGTQVTVSS", "polyreactivity (PSR sort gate)": "high polyreactivity"},
      {"sequence": "QVQLVESGGGLVQAGGSLRLSCAASGSIFRRYAMGWYRQAPGKEREFVAAITRSGGGTYYADSVKGRFTISRDNAKNTVYLQMNSLKPEDTAVYYCAKDVFVQRSRYPEGDYWGQGTQVTVSS", "polyreactivity (PSR sort gate)": "high polyreactivity"},
      {"sequence": "QVQLVESGGGLVQAGGSLRLSCAASGSIFRRYAMGWYRQAPGKERELVAAISGSAGSTYYADSVKGRFTISRDNAKNTVYLQMNSLKPEDTAVYYCKTDRSRSPGDVESASDIKRDYWGQGTQVTVSS", "polyreactivity (PSR sort gate)": "low polyreactivity"},
      {"sequence": "QVQLVESGGGLVQAGGSLRLSCAASGSIFRRYAMGWYRQAPGKERELVAAISWRGDSTYYADSVKGRFTISRDNAKNTVYLQMNSLIPEDTAVYYCAADYYRAGRYWGQRHGYDYWGQGTQVTVSS", "polyreactivity (PSR sort gate)": "low polyreactivity"},
      {"sequence": "QVQLVESGGGLVQAGGSLRLSCAASGSIFRRYAMGWYRQAPGKERELVAAITGTGGRTYYADSVKGRFTMSRDNAKNTVYLQMNSLKPEDTAVYYCNKLVTYYRADPEYDYWGQGTHVTVSS", "polyreactivity (PSR sort gate)": "high polyreactivity"},
      {"sequence": "QVQLVESGGGLVQAGGSLRLSCAASGSIFRRYAMGWYRQAPGKERELVATISYRGGTTYYADSVKVRFTISRDNAKNTVYLQMNSLKPEDTAVYYCNTLYYRGIYDHWGQGTQVTVSS", "polyreactivity (PSR sort gate)": "high polyreactivity"},
      {"sequence": "QVQLVESGGGLVQAGGSLRLSCAASGSIFRRYATGWYRQAPGKERQLVAAISSGGSTYADSVKGRFTISRDNAKNTVYLQMNSLKPEDTAVYYCNASGRWYYGRRYDYWGHGTQVTVSS", "polyreactivity (PSR sort gate)": "low polyreactivity"},
      {"sequence": "QVQLVESGGGLVQAGGSLRLSCAASGSIFRSNAMGWYRQAPGKEREVVAAISSRGGSTYYADSVKGRFTISRDNAKNTVYLQMNSLKPEDTAVYFCNKARYTVISYDEYDYWGQGTQVTVSS", "polyreactivity (PSR sort gate)": "high polyreactivity"}
    ]}
  ]
}
